Assay results reported in patent US20240034813A1 (Janssen / Centocor, published 2024).

Assays:
[1] = biological target: T1, recombinant human EGFR/ErbB1/HER1 with C-terminal His tag, Cy5-labeled (human, UniProt P00533 25-645, Cy5 label (reacted with Cy5 Mono NHS Ester; sites not stated)); experiment: competitive TR-FRET (Eu-amivantamab/Cy5-EGFR), EC50 ratio vs Reference Material; Ex. 11 drug product, 6 months at 25 C
T1 construct: Commercial protein; also called Cy5-EGFR; Cy5-labeled EGFR antigen; not shown: C-terminal His tag
Text: (§1) In this procedure, varying concentrations of unlabeled bispecific EGFR-cMet antibody sample compete with donor fluorophore (Europium (Eu) chelate) labeled bispecific EGFR-cMet antibody for binding to an acceptor fluorophore (Cy5)-labeled EGFR antigen. Excitation of the donor fluorophore results in a transfer of energy to the bound acceptor fluorophore (FRET process). The resultant FRET is detected by emission of light at 665 nm using a microplate reader capable of measuring time-resolved fluorescence. Sample dose response curves are compared to the RM.
(§2) EGFR Binding Materials and Methods. Certified commercial EGFR, a recombinant human EGFR/ErbB1/HER1 with C-terminal His tag is reacted with certified commercial Cy5 Mono NHS Ester to produce Cy5-labeled EGFR. Validated bispecific EGFR-cMet antibody is reacted with certified commercial Europium (Eu) chelate to produce Eu-labeled bispecific EGFR-cMet antibody. […] Fluorescence is then measured by spectrophotometry at 665 nm, plotted against antibody concentration and analyzed by a four-parameter logistic model. The antibody concentration required to obtain half of the maximum fluorescence response (EC50) is determined for RM, assay control and samples. The potencies of assay control and samples are calculated based on the ratio of the sample (or control) and RM EC50 values and reported as a percentage activity relative to the RM.

[2] = biological target: T2, recombinant cMet/HGFR with c-terminal His-tag, Cy5-labeled (UniProt P08581 25-932, limits assumed, Cy5 label (reacted with Cy5 Mono NHS Ester; sites not stated)); experiment: competitive TR-FRET (Eu-amivantamab/Cy5-c-MET), EC50 ratio vs Reference Material; Ex. 11 drug product, 0 months, 5 C table
T2 construct: Commercial protein; also called Cy5-c-MET; Cy5-labeled c-MET antigen; not shown: C-terminal His-tag
Text: (§3) In this procedure, varying concentrations of unlabeled bispecific EGFR-cMet antibody sample compete with donor fluorophore (Europium (Eu) chelate) labeled bispecific EGFR-cMet antibody for binding to an acceptor fluorophore (Cy5)-labeled c-MET antigen. Excitation of the donor fluorophore results in a transfer of energy to the bound acceptor fluorophore (FRET process). The resultant FRET is detected by emission of light at 665 nm using a microplate reader capable of measuring time-resolved fluorescence. Sample dose response curves are compared to the Reference Material (RM).
as §2, with “c-MET Binding” for “EGFR Binding”, “commercial cMet,” for “commercial EGFR,”, “recombinant cMet/HGFR” for “recombinant human EGFR/ErbB1/HER1”, “with c-terminal His-tag” for “with C-terminal His tag”, “Cy5-labeled c-MET.” for “Cy5-labeled EGFR.”, “produce Eu labeled” for “produce Eu-labeled”

[3] = biological target: T2, recombinant cMet/HGFR with c-terminal …; experiment: competitive TR-FRET (Eu-amivantamab/Cy5-c-MET), EC50 ratio vs Reference Material; Ex. 11 drug product, 0 months, 25 C table
Text: as §3
as §2, with “c-MET Binding” for “EGFR Binding”, “commercial cMet,” for “commercial EGFR,”, “recombinant cMet/HGFR” for “recombinant human EGFR/ErbB1/HER1”, “with c-terminal His-tag” for “with C-terminal His tag”, “Cy5-labeled c-MET.” for “Cy5-labeled EGFR.”, “produce Eu labeled” for “produce Eu-labeled”

[4] = biological target: T1, recombinant human EGFR/ErbB1/HER1 with …; experiment: competitive TR-FRET (Eu-amivantamab/Cy5-EGFR), EC50 ratio vs Reference Material; Ex. 2 Formulation 3 (acetate), T0, 25 C table
Text: as §1, §2

[5] = biological target: T1, recombinant human EGFR/ErbB1/HER1 with …; experiment: competitive TR-FRET (Eu-amivantamab/Cy5-EGFR), EC50 ratio vs Reference Material; Ex. 2 Formulation 2 (50 mM histidine), T0, 25 C table
Text: as §1, §2

[6] = biological target: T2, recombinant cMet/HGFR with c-terminal …; experiment: competitive TR-FRET (Eu-amivantamab/Cy5-c-MET), EC50 ratio vs Reference Material; Ex. 2 Formulation 2 (50 mM histidine), T0, 25 C table
Text: as §3
as §2, with “c-MET Binding” for “EGFR Binding”, “commercial cMet,” for “commercial EGFR,”, “recombinant cMet/HGFR” for “recombinant human EGFR/ErbB1/HER1”, “with c-terminal His-tag” for “with C-terminal His tag”, “Cy5-labeled c-MET.” for “Cy5-labeled EGFR.”, “produce Eu labeled” for “produce Eu-labeled”

[7] = biological target: T2, recombinant cMet/HGFR with c-terminal …; experiment: competitive TR-FRET (Eu-amivantamab/Cy5-c-MET), EC50 ratio vs Reference Material; Ex. 2 Formulation 2 (50 mM histidine), 3 months at 25 C
Text: as §3
as §2, with “c-MET Binding” for “EGFR Binding”, “commercial cMet,” for “commercial EGFR,”, “recombinant cMet/HGFR” for “recombinant human EGFR/ErbB1/HER1”, “with c-terminal His-tag” for “with C-terminal His tag”, “Cy5-labeled c-MET.” for “Cy5-labeled EGFR.”, “produce Eu labeled” for “produce Eu-labeled”

[8] = biological target: T1, recombinant human EGFR/ErbB1/HER1 with …; experiment: competitive TR-FRET (Eu-amivantamab/Cy5-EGFR), EC50 ratio vs Reference Material; Ex. 3 acetate formulation, 6 months at 25 C, untreated control
Text: as §1, §2

B1: amivantamab (bispecific antibody, human IgG1, kappa)
heavy 1: not shown
light 1: not shown
heavy 2: not shown
light 2: DIQMTQSPSSVSASVGDRVTITCRASQGISNWLAWFQHKPGKAPKLLIYAASSLLSGVPSRFSGSGSGTDFTLTISSLQPEDFATYYCQQANSFPITFGQGTRLEIKRTVAAPSVFIFPPSDEQLKSGTASVVCLLNNFYPREAKVQWKVDNALQSGNSQESVTEQDSKDSTYSLSSTLTLSKADYEKHKVYACEVTHQGLSSPVTKSFNRGEC
notes: The samples tested were high concentration (160 mg/mL) formulations, fresh or stored or stressed; also called JNJ-61186372; bispecific EGFR-cMet antibody
EGFR Binding activity relative to Reference Material (%) [1]: 57%
cMET Binding activity relative to Reference Material (%) [2]: 85%
cMET Binding activity relative to Reference Material (%) [3]: 85%
EGFR Binding % activity relative to RM [4]: 103%
EGFR Binding % activity relative to RM [5]: 103%
cMET Binding % activity relative to RM [6]: 102%
cMET Binding % activity relative to RM [7]: 89%
EGFR Binding % activity relative to RM [8]: 83%
